Experimental data from patent US20050182242A1, “Global analysis of protein activities using proteome chips” (priority 2001, published 2005).

B1: Cmp2p: one of the two yeast calcineurins (protein)
chain: MSSDAIRNTEQINAAIKIIENKTERPQSSTTPIDSKASTVAAANSTATETSRDLTQYTLDDGRVVSTNRRIMNKVPAITSHVPTDEELFQPNGIPRHEFLRDHFKREGKLSAAQAARIVTLATELFSKEPNLISVPAPITVCGDIHGQYFDLLKLFEVGGDPATTSYLFLGDYVDRGSFSFECLIYLYSLKLNFNDHFWLLRGNHECKHLTSYFTFKNEMLHKYNLDIYEKCCESFNNLPLAALMNGQYLCVHGGISPELNSLQDINNLNRFREIPSHGLMCDLLWADPIEEYDEVLDKDLTEEDIVNSKTMVPHHGKMAPSRDMFVPNSVRGCSYAFTYRAACHFLQETGLLSIIRAHEAQDAGYRMYKNTKTLGFPSLLTLFSAPNYLDTYNNKAAILKYENNVMNIRQFNMTPHPYWLPDFMDVFTWSLPFVGEKVTEMLVAILNICTEDELENDTPVIEELVGTDKKLPQAGKSEATPQPATSASPKHASILDDEHRRKALRNKILAVAKVSRMYSVLREETNKVQFLKDHNSGVLPRGALSNGVKGLDEALSTFERARKHDLINEKLPPSLDELKNENKKYYEKVWQKVHEHDAKNDSK
modifications: left off: a dimerising Fc or GST
notes: one of the two yeast calcineurins
B2: Bur6p: alpha-subunit of the NC2 (Dr1/Drap1) repressor of class II transcription (protein, UniProt P40096 1-142, looked up)
Negative cofactor 2 complex …: MADQVPVTTQLPPIKPEHEVPLDAGGSPVGNMGTNSNNNNELGDVFDRIKTHFPPAKVKKIMQTDEDIGKVSQATPVIAGRSLEFFIALLVKKSGEMARGQGTKRITAEILKKTILNDEKFDFLREGLCVEEGQTQPEEESA
B3: Smd1p: U1 snRNP component (protein, UniProt Q02260 1-146, looked up)
Small nuclear …: MKLVNFLKKLRNEQVTIELKNGTTVWGTLQSVSPQMNAILTDVKLTLPQPRLNKLNSNGIAMASLYLTGGQQPTASDNIASLQYINIRGNTIRQIILPDSLNLDSLLVDQKQLNSLRRSGQIANDPSKKRRRDFGAPANKRPRRGL
B4: Cmk2p: yeast calcium/calmodulin-dependent serine/threonine protein kinase (protein, UniProt P22517 1-447, looked up)
Calcium/calmodulin-dependent …: MPKESEVINSEFHVDVQDPERLNGHPVAKFINKLSGQPESYVNRTNYIFGRTLGAGSFGVVRQARKLSTNEDVAIKILLKKALQGNNVQLQMLYEELSILQKLSHPNIVSFKDWFESKDKFYIVTQLATGGELFDRILSRGKFTEVDAVEIIVQILGAVEYMHSKNVVHRDLKPENVLYVDKSENSPLVIADFGIAKQLKGEEDLIYKAAGSLGYVAPEVLTQDGHGKPCDIWSIGVITYTLLCGYSPFIAESVEGFMEECTASRYPVTFHMPYWDNISIDVKRFILKALRLNPADRPTATELLDDPWITSKRVETSNILPDVKKGFSLRKKLRDAIEIVKLNNRIKRLRNMYSLGDDGDNDIEENSLNESLLDGVTHSLDDLRLQSQKKGGELTEEQMKLKSALTKDAFVQIVKAATKNKHKVLAGEEEDDSKKTLHDDRESKSED
B5: Hst3p: transcriptional silencer (protein, UniProt P53687 1-447, looked up)
NAD-dependent histone …: MTSVSPSPPASRSGSMCSDLPSSLQTEKLAHIIGLDADDEVLRRVTKQLSRSRRIACLTGAGISCNAGIPDFRSSDGLYDLVKKDCSQYWSIKSGREMFDISLFRDDFKISIFAKFMERLYSNVQLAKPTKTHKFIAHLKDRNKLLRCYTQNIDGLEESIGLTLSNRKLPLTSFSSHWKNLDVVQLHGDLKTLSCTKCFQTFPWSRYWSRCLRRGELPLCPDCEALINKRLNEGKRTLGSNVGILRPNIVLYGENHPSCEIITQGLNLDIIKGNPDFLIIMGTSLKVDGVKQLVKKLSKKIHDRGGLIILVNKTPIGESSWHGIIDYQIHSDCDNWVTFLESQIPDFFKTQDQIKKLRQLKREASDLRKQMKAQKDSIGTPPTTPLRTAQGIDIQGNNELNTKIKSLNTVKRKILSPENSSEEDEEENLDTRKRAKIRPTFGDNQAS
B6: Tos8p: yeast transcription factor suggested to be involved in RNA splicing and processing (protein, UniProt P53147 1-276, looked up)
Homeobox protein TOS8: MGTSIVNLNQKIELPPIQVLFESLNRENETKPHFEERRLYQPNPSFVPRTNIAVGSPVNPVPVSSPVFFIGPSPQRSIQNHNAIMTQNIRQYPVIYNNNREVISTGERNYIITVGGPPVTSSQPEYEHISTPNFYQEQRLAQPHPVNESMMIGGYTNPQPISISRGKMLSGNISTNSVRGSNNGYSAKEKKHKAHGKRSNLPKATVSILNKWLHEHVNNPYPTVQEKRELLAKTGLTKLQISNWFINARRRKIFSGQNDANNFRRKFSSSTNLAKF
B7: Dst1p: yeast protein with a role in transcription elongation (protein, UniProt P07273 1-309, looked up)
Transcription elongation …: MDSKEVLVHVKNLEKNKSNDAAVLEILHVLDKEFVPTEKLLRETKVGVEVNKFKKSTNVEISKLVKKMISSWKDAINKNKRSRQAQQHHQDHAPGNAEDKTTVGESVNGVQQPASSQSDAMKQDKYVSTKPRNSKNDGVDTAIYHHKLRDQVLKALYDVLAKESEHPPQSILHTAKAIESEMNKVNNCDTNEAAYKARYRIIYSNVISKNNPDLKHKIANGDITPEFLATCDAKDLAPAPLKQKIEEIAKQNLYNAQGATIERSVTDRFTCGKCKEKKVSYYQLQTRSADEPLTTFCTCEACGNRWKFS

Tests used:
Type in all cases: binding
calmodulin = biological target: T1, calmodulin (Homo sapiens, UniProt P0DP23); test: Yeast proteome chip probed with biotinylated calmodulin; conditions: biotinylated calmodulin in the presence of calcium
T1 construct: purchased CalBiochem, USA
Description: To test for protein-protein interactions, the yeast proteome was probed with calmodulin (11). Calmodulin is a highly conserved calcium-binding protein involved in many calcium-regulated cellular processes and has many known physical partners (Hook et al., 2001, Annu. Rev. Pharmacol. Toxicol. 41:471). The calmodulin probe was biotinylated, and bound probe was detected using Cy3-labeled streptavidin. As a control, the yeast proteome was probed with Cy3-labeled streptavidin alone.
Generally, protein-protein interactions can be assayed as follows. Blocked proteome chips are washed three to five times in PBS buffer, and the extra liquid on the glass surface is removed by tapping the slides vertically on a KIMWIPE™. 200 ∞l of biotinylated protein probe is added to the proteome chip and immediately covered by a hydrophobic plastic cover slip (GRACE BIO-LABS™, USA). After trapped air bubbles are removed, the chip is incubated in a humidity chamber at room temperature (RT) for one hour. To remove the cover slip, the chip is immersed into large volume of PBS buffer (>50 ml), and the slip should float away. The chip is then moved to a second PBS bath (>50 ml) and washed 3×5 min with shaking at RT. After removing extra liquid on the surface of the chip, at least 150 μl of Cy3- or Cy5-conjugated streptavidin (PIERCE™, USA; 1:2000 to 1:4000 dilution) is added to the surface and covered by a hydrophobic plastic cover slip (GRACE BIO-LABS™, USA). The chip is incubated for greater than 30 min in the dark at RT. The chip is then washed as described above. To completely remove the liquid on the chip, the chip is spun to dryness at 1500-2000 rpm for 5-10 min at RT.
• 1. S. Fields, Y. Kohara, D. J. Lockhart, Proc. Natl. Acad. Sci. 96, 8825 (1999); A. Goffeau et al., Science 274, 563 (1996). • 2 P. Ross-Macdonald et al., Nature 402, 413 (1999); J. L., DeRisi, V. R. Iyer, P. O. Brown, Science 278, 680 (1997); E. A. Winzeler et al., Science 285, 901 (1999). P. Uetz et al., Nature 403, 623 (2000); T. Ito et al., Proc. Natl. Acad. Sci. USA. 97, 1143 (2000) • 3 H. Zhu, M. Snyder, Curr. Opin. Chem. Biol. 5, 40 (2001). • 4 M. R. Martzen et al., Science 286, 1153 (1999). • 5 H. Zhu et al., Nat. Genet. 26, 283 (2000). • 6 G. MacBeath, S. L. Schreiber, Science 289, 1760 (2000). • 7 A. Caveman, J. Cell Sci. 113, 3543 (2000). • 8 P. Arenkov et al., Anal. Biochem 278, 123 (2000). • 9 D. A. Mitchell, T. K. Marshall, R. J. Deschenes, Yeast 9, 715 (1993). The expression vector pEGH was created by inserting an RGS-HisX6 epitope tag between the GST gene and the polycloning site of pEG(KG). The yeast ORFs were cloned using the strategy described previously (5), except every step was done in a 96-well format. Plasmid DNAs confirmed by DNA sequencing were reintroduced into both yeast (Y258) and E. coli (DH5a). […] 0.1 mM calcium was present in buffers in all subsequent steps. The chip was washed three times with PBS at RT. Cy3-conjugated streptavidin (Jackson IR, USA) (1:5000 dilution) was added to the chip and incubated for 30 min at RT. After extensive washing, the chip was spun dry and scanned using a microarray scanner; the data was subsequently acquired with the GENEPIX™ array densitometry software (Axon, USA). • 12 S. S. Hook, A. R. Means, Annu. Rev. […]

total yeast genomic DNA = test: Yeast proteome chip probed with labeled genomic DNA; conditions: Cy3-labeled genomic DNA, visual inspection
Description: (§1) Protein-DNA and protein-RNA interactions are important for many fundamental biological functions such as transcription regulation, chromosome segregation and maintenance, and RNA transport and processing (Williamson, 2000, Nat. Struct. Biol. 7(10):834-7). To explore the possibility of using a proteome chip to identify proteins that bind to DNA or RNA molecules, total yeast genomic DNA was labeled using Cy3-CTP and Klenow fragment, and polyA^+ was labeled using a biotinylated psoralen-derivative (31). Each probe was incubated with a different proteome chip (FIG. 3A).
(§2) The protein-nucleic acid interaction was assayed as follows. The nucleic acid robes were labeled as described by Winzeler et al. (1999, Science 285:901). Blocked proteome chips were washed three to five times in PBS buffer, and the extra liquid on the glass surface was removed by tapping the slides vertically on a KIMWIPE™. 200 μl of labeled nuclei acid probe ([…] poly(dC/dG); 100-300 mM NaCl; 50-300 mM HEPES, pH 7.0-8.5; 10 mM MgCl2) was added to the proteome chip and immediately covered by a hydrophobic plastic cover slip (GRACE BIO-LABS™, USA). After trapped air bubbles were removed, the chip was incubated in a humidity chamber in the dark at room temperature (“RT”) for one hour. To remove the cover slip, the chip was immersed into large volume of PBS buffer(>50 ml), so that the slip would float away. The chip was then moved to a second PBS bath (>50 ml) and washed 3×5 min with shaking in the dark at RT. To completely remove the liquid on the chip, the chip was spun to dryness at 1500-2000 rpm for 5-10 min at RT.

RNA-polyA+ = test: Yeast proteome chip probed with biotin-labeled polyA+ RNA; conditions: Cy3-streptavidin
Description: as §1, §2
RNA-polyA^+ from exponentially growing cells was labeled with biotin and used to probe the proteome microarray. The positive signals were detected using Cy3-streptavidin. […] In addition to proteins that likely directly or indirectly interact with RNA, we found two transcription factors (Bur6p and Tos8p), one transcriptional silencer (Hst3p), six other proteins encoded by known ORFs, and seven proteins from uncharacterized ORFs.

Molecule | calmodulin binding (calmodulin) | binding of genomic DNA probe (total yeast genomic DNA) | binding of polyA+ RNA probe (RNA-polyA+)
B1 | identified | – | –
B2 | – | identified | bound both the DNA and RNA probes
B3 | – | – | identified
B4 | identified | – | –
B5 | – | – | identified
B6 | – | – | identified
B7 | identified | – | –
